For this experiment, the target named is Strep-Tag II peptide WSHPQFEK (SEQ ID NO:9). As to the kind of experiment: ELISA assay after Friguet et al 1985. On the technique in general: In an ELISA, binding on a coated surface is turned into a signal by an enzyme label.

This note sets out measurements from EP2871189A1, “High-affinity monoclonal anti-strep-tag antibody” (INSTITUT PASTEUR, priority 2013, dated 2015).

B1: monoclonal antibody C23.21 (antibody, V domains shown)
VH: EVQLEQSGPELVKPGASVKMSCKASGYTFTNYYMKWVKQSHGKSLEWIGDLNPNNGDTFYNQKFKGKATLTVDKSSNTAYMQLNSLTSEDSAVYYCARTGRYEENAMDYWGQGTSVTVSS
VL: ELVMTQSPASLAVSLGQRATISCRASESVDSYGKSFMHWYQLKPGQPPKLLIYRASNLESGVPARFSGSGSRTDFTLTIDPVEADDAATYYCQQNNEDPWTFGGGTKLEIK
One may read the Kd as the concentration at which binding is half-saturated. A higher Kd goes with lower affinity. Molecule B1 had a Kd of 0.14 nM. This counts as sub-nanomolar.
